This data set has as its target recombinant PD-L1, His tagged (human, UniProt Q9NZQ7 19-239). The experiment in a line: pull-down.

Chain of recombinant PD-L1, His tagged (Q9NZQ7 19-239): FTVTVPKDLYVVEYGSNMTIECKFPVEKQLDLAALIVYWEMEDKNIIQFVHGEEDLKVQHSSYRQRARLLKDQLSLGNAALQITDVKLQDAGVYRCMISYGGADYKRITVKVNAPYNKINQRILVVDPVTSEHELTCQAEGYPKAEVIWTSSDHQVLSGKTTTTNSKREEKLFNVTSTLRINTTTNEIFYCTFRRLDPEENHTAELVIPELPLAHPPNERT

B1: XQ-P3 biotinylated (ssDNA)
DNA: ACCGACCGTGCTGGACTCATCTCGCTTTTTTCACGGTCCACACTACTATGAGCGAGCCTGGCG
modifications: biotin
B1: the binding result is “binds”.

Source of the values: article PMC7331476.
